Test [1] addresses Collagen I (Gibco), coated on 96-well plates (UniProt P02454). The test can be described thus: ELISA; Collagen I (Gibco) coated 96-well plates; LAIR-fusion proteins in PBSTA (PBS, 0.1% BSA, 0.05% Tween-20) for 4 h at room temperature; detected with HRP-conjugated polyclonal anti-6xHis.
Test [2] has as its target T1, alternatively spliced extra-domain B (EIIIB) domain of fibronectin (Mus musculus (assumed; murine B16F10 …, UniProt P11276).
T1 construct: fibronectin, alternatively spliced EIIIB (extra-domain B) domain; also called FN-EIIIB
The test can be described thus: not stated; Kd for EIIIB printed in the discussion; Supplementary Fig. 18b is pointed to.

In test [3] the target is Collagen I (Gibco), coated on 96-well plates (UniProt P02454 152-1207; P02466 86-1125). The test can be described thus: ELISA.
Target sequence in this assay (P02454 152-1207, chain 1 of 2): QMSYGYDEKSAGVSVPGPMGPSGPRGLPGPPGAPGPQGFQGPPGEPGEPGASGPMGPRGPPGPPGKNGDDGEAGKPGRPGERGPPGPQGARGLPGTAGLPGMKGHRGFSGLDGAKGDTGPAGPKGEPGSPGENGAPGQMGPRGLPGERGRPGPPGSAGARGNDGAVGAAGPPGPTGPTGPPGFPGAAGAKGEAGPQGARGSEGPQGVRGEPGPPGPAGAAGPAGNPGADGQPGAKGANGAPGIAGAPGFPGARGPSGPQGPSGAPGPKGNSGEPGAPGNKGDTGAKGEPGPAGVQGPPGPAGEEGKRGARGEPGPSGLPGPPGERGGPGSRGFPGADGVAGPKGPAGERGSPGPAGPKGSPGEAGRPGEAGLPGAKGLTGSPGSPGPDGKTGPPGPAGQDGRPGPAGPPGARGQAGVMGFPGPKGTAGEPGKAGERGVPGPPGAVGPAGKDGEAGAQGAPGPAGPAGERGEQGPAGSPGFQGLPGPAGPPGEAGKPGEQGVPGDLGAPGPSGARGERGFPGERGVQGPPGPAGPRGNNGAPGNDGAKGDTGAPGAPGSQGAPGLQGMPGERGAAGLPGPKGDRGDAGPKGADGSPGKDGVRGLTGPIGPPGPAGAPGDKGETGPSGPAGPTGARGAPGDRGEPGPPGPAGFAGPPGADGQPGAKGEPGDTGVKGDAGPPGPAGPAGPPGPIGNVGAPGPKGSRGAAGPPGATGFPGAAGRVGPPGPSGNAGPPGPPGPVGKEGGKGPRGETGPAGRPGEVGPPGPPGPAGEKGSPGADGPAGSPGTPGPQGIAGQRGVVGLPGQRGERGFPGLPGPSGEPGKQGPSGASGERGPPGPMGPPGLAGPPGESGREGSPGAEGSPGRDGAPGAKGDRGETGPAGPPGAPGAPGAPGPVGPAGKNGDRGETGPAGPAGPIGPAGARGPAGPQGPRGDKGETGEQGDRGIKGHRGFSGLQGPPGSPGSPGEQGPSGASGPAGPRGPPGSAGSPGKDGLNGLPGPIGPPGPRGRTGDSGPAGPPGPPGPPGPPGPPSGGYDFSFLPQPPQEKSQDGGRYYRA
Target sequence in this assay (P02466 86-1125, chain 2 of 2): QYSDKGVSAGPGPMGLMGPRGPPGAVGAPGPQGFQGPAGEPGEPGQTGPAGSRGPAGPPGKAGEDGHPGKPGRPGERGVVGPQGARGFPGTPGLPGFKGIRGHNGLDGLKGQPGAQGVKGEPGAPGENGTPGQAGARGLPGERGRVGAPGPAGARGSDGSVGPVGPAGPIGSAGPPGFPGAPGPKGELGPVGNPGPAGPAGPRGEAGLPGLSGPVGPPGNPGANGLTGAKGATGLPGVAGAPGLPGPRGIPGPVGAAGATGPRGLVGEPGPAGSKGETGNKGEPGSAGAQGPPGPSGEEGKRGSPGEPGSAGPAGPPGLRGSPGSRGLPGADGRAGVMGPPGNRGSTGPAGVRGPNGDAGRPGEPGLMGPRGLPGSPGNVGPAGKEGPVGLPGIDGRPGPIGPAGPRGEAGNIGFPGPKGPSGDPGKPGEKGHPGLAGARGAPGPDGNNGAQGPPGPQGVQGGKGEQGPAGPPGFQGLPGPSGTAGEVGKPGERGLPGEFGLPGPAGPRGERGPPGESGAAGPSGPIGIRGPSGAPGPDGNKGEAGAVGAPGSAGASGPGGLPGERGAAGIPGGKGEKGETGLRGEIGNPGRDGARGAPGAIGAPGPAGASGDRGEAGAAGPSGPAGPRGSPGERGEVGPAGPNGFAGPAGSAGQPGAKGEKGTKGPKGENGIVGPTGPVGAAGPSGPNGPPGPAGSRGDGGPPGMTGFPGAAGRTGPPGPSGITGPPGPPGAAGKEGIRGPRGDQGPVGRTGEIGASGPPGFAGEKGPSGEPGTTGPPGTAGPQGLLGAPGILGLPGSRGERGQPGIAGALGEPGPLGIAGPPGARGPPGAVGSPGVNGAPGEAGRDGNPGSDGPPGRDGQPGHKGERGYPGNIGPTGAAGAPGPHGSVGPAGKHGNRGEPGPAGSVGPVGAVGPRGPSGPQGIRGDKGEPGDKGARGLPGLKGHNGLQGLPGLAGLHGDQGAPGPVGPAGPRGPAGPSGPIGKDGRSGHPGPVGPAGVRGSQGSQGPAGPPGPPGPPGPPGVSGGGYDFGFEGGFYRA
Test [4] addresses T2, Collagen I (Gibco), coated on 96-well plates (UniProt P02454 152-1207; P02466 86-1125).
T2 construct: collagen type I, alpha-1(I) chain; collagen type I, alpha-2(I) chain; the two chains and rat as species are surmised; also called native collagen; collagen type I; source: bought: Gibco (collagen I coated 96-well plates)
The test can be described thus: ELISA; Collagen I (Gibco) coated 96-well plates; LAIR-fusion proteins in PBSTA (PBS, 0.1% BSA, 0.05% Tween-20) for 4 h at room temperature; detected with HRP-conjugated polyclonal anti-6xHis. The note with it: both partners purified.
T2 sequence (P02454 152-1207, chain 1 of 2): as the sequence (P02454 152-1207, chain 1 of 2) above
T2 sequence (P02466 86-1125, chain 2 of 2): as the sequence (P02466 86-1125, chain 2 of 2) above

Collagen I (Gibco), coated on 96-well plates (UniProt P02454), sequence (P02454 152-1207, chain 1 of 2): as the sequence (P02454 152-1207, chain 1 of 2) above
Collagen I (Gibco), coated on 96-well plates (UniProt P02454), sequence (P02466 86-1125, chain 2 of 2, further chain): as the sequence (P02466 86-1125, chain 2 of 2) above

As for “LAIR-LAIR-MSA^H464Q-IL2-his (from UniProt Q8BG84 22-144; Q8BG84 22-144)”, in test [1], the Kd worked out at 13 nM. On to “LAIR-IL2-his (from UniProt Q8BG84 22-144)”, for which the Kd in test [1] was determined as 220 nM.

B1: NJB2-MSA^H464Q-IL2 (VHH)
VHH: QVQLVETGGGLVQAGGSLRLSCAASGSTFSHNAGGWYRQAPEKQRELVAGISSDGNINYADSVKDRFTISRDNASNTMYLQMNNLKPEDTAVYVCNIRGSYGNTYYSRWGQGTQVTVSS
notes: nanobody NJB2 (15 kD); mouse serum albumin (MSA) with H464Q; interleukin-2 (IL-2); 98 kD; MSA^H464Q incorporated between the nanobody and IL-2; source: suspension HEK293, transfected, purified
Regarding B1, the Kd in test [2] worked out at 1 nM. That is a single-digit nanomolar value.

B2: LAIR-LAIRx-MSA^H464Q-his (other)
chain: QEGSLPDITIFPNSSLMISQGTFVTVVCSYSDKHDLYNMVRLEKDGSTFMEKSTEPYKTEDEFEIGPVNETITGHYSCIYSKGITWSERSKTLELKVIKENVIQTPAPGPTSDTSWLKTYSIYQEGSLPDITIFPNSSLMISQGTFVTVVCSYSDKHDLYNMVALAKDGSTFMEKSTEPYKTEDEFEIGPVNETITGHYSCIYSKGITWSERSKTLELKVIKENVIQTPAPGPTSDTSWLKTYSIYEAHKSEIAHRYNDLGEQHFKGLVLIAFSQYLQKCSYDEHAKLVQEVTDFAKTCVADESAANCDKSLHTLFGDKLCAIPNLRENYGELADCCTKQEPERNECFLQHKDDNPSLPPFERPEAEAMCTSFKENPTTFMGHYLHEVARRHPYFYAPELLYYAEQYNEILTQCCAEADKESCLTPKLDGVKEKALVSSVRQRMKCSSMQKFGERAFKAWAVARLSQTFPNADFAEITKLATDLTKVNKECCHGDLLECADDRAELAKYMCENQATISSKLQTCCDKPLLKKAHCLSEVEHDTMPADLPAIAADFVEDQEVCKNYAEAKDVFLGTFLYEYSRRHPDYSVSLLLRLAKKYEATLEKCCAEANPPACYGTVLAEFQPLVEEPKNLVKTNCDLYEKLGEYGFQNAILVRYTQKAPQVSTPTLVEAARNLGRVGTKCCTLPEDQRLPCVEDYLSAILNRVCLLQEKTPVSEHVTKCCSGSLVERRPCFSALTVDETYVPKEFKAETFTFHSDICTLPEKEKQIKKQTALAELVKHKPKATAEQLKTVMDDFAQFLDTCCKAADKDTCFSTEGPNLVTRCKDALA
B2 came in with a Kd in test [3] of 158 nM.

B3: LAIR-LAIR-MSA^H464Q-his (other)
chain: QEGSLPDITIFPNSSLMISQGTFVTVVCSYSDKHDLYNMVRLEKDGSTFMEKSTEPYKTEDEFEIGPVNETITGHYSCIYSKGITWSERSKTLELKVIKENVIQTPAPGPTSDTSWLKTYSIYQEGSLPDITIFPNSSLMISQGTFVTVVCSYSDKHDLYNMVRLEKDGSTFMEKSTEPYKTEDEFEIGPVNETITGHYSCIYSKGITWSERSKTLELKVIKENVIQTPAPGPTSDTSWLKTYSIYEAHKSEIAHRYNDLGEQHFKGLVLIAFSQYLQKCSYDEHAKLVQEVTDFAKTCVADESAANCDKSLHTLFGDKLCAIPNLRENYGELADCCTKQEPERNECFLQHKDDNPSLPPFERPEAEAMCTSFKENPTTFMGHYLHEVARRHPYFYAPELLYYAEQYNEILTQCCAEADKESCLTPKLDGVKEKALVSSVRQRMKCSSMQKFGERAFKAWAVARLSQTFPNADFAEITKLATDLTKVNKECCHGDLLECADDRAELAKYMCENQATISSKLQTCCDKPLLKKAHCLSEVEHDTMPADLPAIAADFVEDQEVCKNYAEAKDVFLGTFLYEYSRRHPDYSVSLLLRLAKKYEATLEKCCAEANPPACYGTVLAEFQPLVEEPKNLVKTNCDLYEKLGEYGFQNAILVRYTQKAPQVSTPTLVEAARNLGRVGTKCCTLPEDQRLPCVEDYLSAILNRVCLLQEKTPVSEHVTKCCSGSLVERRPCFSALTVDETYVPKEFKAETFTFHSDICTLPEKEKQIKKQTALAELVKHKPKATAEQLKTVMDDFAQFLDTCCKAADKDTCFSTEGPNLVTRCKDALA
B3 came in with a Kd in test [3] of 20 nM.

B4: LAIRx-LAIRx-MSA^H464Q-IL2-his (other)
chain: QEGSLPDITIFPNSSLMISQGTFVTVVCSYSDKHDLYNMVALAKDGSTFMEKSTEPYKTEDEFEIGPVNETITGHYSCIYSKGITWSERSKTLELKVIKENVIQTPAPGPTSDTSWLKTYSIYQEGSLPDITIFPNSSLMISQGTFVTVVCSYSDKHDLYNMVALAKDGSTFMEKSTEPYKTEDEFEIGPVNETITGHYSCIYSKGITWSERSKTLELKVIKENVIQTPAPGPTSDTSWLKTYSIYEAHKSEIAHRYNDLGEQHFKGLVLIAFSQYLQKCSYDEHAKLVQEVTDFAKTCVADESAANCDKSLHTLFGDKLCAIPNLRENYGELADCCTKQEPERNECFLQHKDDNPSLPPFERPEAEAMCTSFKENPTTFMGHYLHEVARRHPYFYAPELLYYAEQYNEILTQCCAEADKESCLTPKLDGVKEKALVSSVRQRMKCSSMQKFGERAFKAWAVARLSQTFPNADFAEITKLATDLTKVNKECCHGDLLECADDRAELAKYMCENQATISSKLQTCCDKPLLKKAHCLSEVEHDTMPADLPAIAADFVEDQEVCKNYAEAKDVFLGTFLYEYSRRHPDYSVSLLLRLAKKYEATLEKCCAEANPPACYGTVLAEFQPLVEEPKNLVKTNCDLYEKLGEYGFQNAILVRYTQKAPQVSTPTLVEAARNLGRVGTKCCTLPEDQRLPCVEDYLSAILNRVCLLQEKTPVSEHVTKCCSGSLVERRPCFSALTVDETYVPKEFKAETFTFHSDICTLPEKEKQIKKQTALAELVKHKPKATAEQLKTVMDDFAQFLDTCCKAADKDTCFSTEGPNLVTRCKDALAAPTSSSTSSSTAEAQQQQQQQQQQQQHLEQLLMDLQELLSRMENYRNLKLPRMLTFKFYLPKQATELKDLQCLEDELGPLRHVLDLTQSKSFQLEDAENFISNIRVTVVKLKGSDNTFECQFDDESATVVDFLRRWIAFCQSIISTSPQ
In test [4], B4 registered a Kd of more than 1000 nM.

B5: LAIRx-IL2-his (other)
chain: QEGSLPDITIFPNSSLMISQGTFVTVVCSYSDKHDLYNMVALAKDGSTFMEKSTEPYKTEDEFEIGPVNETITGHYSCIYSKGITWSERSKTLELKVIKENVIQTPAPGPTSDTSWLKTYSIYAPTSSSTSSSTAEAQQQQQQQQQQQQHLEQLLMDLQELLSRMENYRNLKLPRMLTFKFYLPKQATELKDLQCLEDELGPLRHVLDLTQSKSFQLEDAENFISNIRVTVVKLKGSDNTFECQFDDESATVVDFLRRWIAFCQSIISTSPQ
B5: in test [4], the Kd was more than 1000 nM.
